Results on 84 variants are retold here after the RNAGym collection of RNA variant scans (doi:10.1073/pnas.2313332121).

Variants at the floor of the assay were thinned out. Where only a bound is given, the exact number is not on record here.

Sequences and labels used below:
B1: TPR 5TU (parent)
chain: GGAUCUUCUCGAUCUAACAAAAAAGACAAAUCUGCCACAAAGCUUGAGAGCAUCUUCGGAUGCAGAGGCGGCAGCCUUCGGUGGCGCGAUAGCGCCAACGUUCUCAACUAUGACACGCAAAACGCGUGCUCCGUUGAAUGGAGUUUAUCAUG

In this data set the parent is B1. The data set is described as follows: polymerase ribozyme fitness, log enrichment relative to wild type (log ratio); higher = more active; in vitro selection for triplet polymerase activity. The essentials: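 Fitness compares each genotype's enrichment to that of the wild type on a logarithmic scale, averaging replicates with inverse-variance weights. The logarithm is base 2. Enrichment came from Illumina sequencing of input and output libraries after one triplicate round of in vitro selection, which included frozen incubation at −7 °C, of PCR-built, transcribed mutant libraries of each subunit of a heterodimeric triplet polymerase ribozyme. Only genotypes with ≥10 input reads and ≥1 read per output were kept.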
Turning to A3G A12C A37C G48A A49C U78G G86A C87G C99U A142C U146G, the “polymerase ribozyme fitness (log ratio)” value was at most -4.2.

With A3G C18A A19G U33G C125U, the “polymerase ribozyme fitness (log ratio)” value is at most -4.2.

Consider G62A G84A U135A, for which the “polymerase ribozyme fitness (log ratio)” value is -1.93.

In the case of C105G, the “polymerase ribozyme fitness (log ratio)” value is -0.829.

A19C G92A: the “polymerase ribozyme fitness (log ratio)” value was -2.38.

As for A23U C87G A91G, the “polymerase ribozyme fitness (log ratio)” value was at most -4.2.

Turning to C5A C85U A97U G143A, the “polymerase ribozyme fitness (log ratio)” value was -1.87.

For C57U G92A U104C U135C, the “polymerase ribozyme fitness (log ratio)” value is at most -4.2.

Turning to A17G G67C G86A, the “polymerase ribozyme fitness (log ratio)” value was at most -4.2.

Regarding G84C U134G, the “polymerase ribozyme fitness (log ratio)” value was at most -4.2.

U55G C87U G92A U101G G143U: the “polymerase ribozyme fitness (log ratio)” value was -3.33.

C8G A22G U44A A52C A73C C125G: the “polymerase ribozyme fitness (log ratio)” value is at most -4.2.

Regarding G46U G59A G74A G84C U104C G112C U134G U145A, the “polymerase ribozyme fitness (log ratio)” value is at most -4.2.

For the variant A22U C27G G50C G58C A97G C103G A110U U139A, the “polymerase ribozyme fitness (log ratio)” value is at most -4.2.

C93U A121C G140C: the “polymerase ribozyme fitness (log ratio)” value is at most -4.2.

With A12G G25A C87G C116A U148G, the “polymerase ribozyme fitness (log ratio)” value was at most -4.2.

On to C118G A142G, for which the “polymerase ribozyme fitness (log ratio)” value was -1.54.

Consider C43G C57A A60U G141C, for which the “polymerase ribozyme fitness (log ratio)” value is -4.18.

With A21U U56A G140A G141A, the “polymerase ribozyme fitness (log ratio)” value is -4.17.

Regarding U4A A20C A28C A29G C87A G141U, the “polymerase ribozyme fitness (log ratio)” value is -4.08.

Turning to A121G A122C A137C, the “polymerase ribozyme fitness (log ratio)” value was -4.06.

On to A52C C118U G143A U144C, for which the “polymerase ribozyme fitness (log ratio)” value was -3.94.

On to A39U U53A C85A, for which the “polymerase ribozyme fitness (log ratio)” value was at most -4.2.

As to A47U G58C U61G G81A, the “polymerase ribozyme fitness (log ratio)” value is -3.65.

As to A17C U44G U61G, the “polymerase ribozyme fitness (log ratio)” value is at most -4.2.

For A41C C76U G81A A110C, the “polymerase ribozyme fitness (log ratio)” value is at most -4.2.

Regarding C35U C72U, the “polymerase ribozyme fitness (log ratio)” value was -0.649.

For G48A C103A, the “polymerase ribozyme fitness (log ratio)” value is -1.74.

Turning to G94U A98U C99G A147G, the “polymerase ribozyme fitness (log ratio)” value is -3.16.

For C5A A26G C36A C96A, the “polymerase ribozyme fitness (log ratio)” value is at most -4.2.

As for A12C U90G A107G A138G, the “polymerase ribozyme fitness (log ratio)” value was at most -4.2.

As to G128A, the “polymerase ribozyme fitness (log ratio)” value was -2.74.

For the variant C36A U77G G81C G92U A115U G136C, the “polymerase ribozyme fitness (log ratio)” value was at most -4.2.

For A28C A30U C35G C87A C105U, the “polymerase ribozyme fitness (log ratio)” value was -3.84.

For the variant A12U A39G C95U, the “polymerase ribozyme fitness (log ratio)” value is -2.3.

Take C38G A49U U55A C87A G126A G143C: the “polymerase ribozyme fitness (log ratio)” value is at most -4.2.

In the case of G50U G83A C95G A107G, the “polymerase ribozyme fitness (log ratio)” value was at most -4.2.

In the case of C5U C96A, the “polymerase ribozyme fitness (log ratio)” value came to 0.48.

G11A A41U A60G U77C C87A: the “polymerase ribozyme fitness (log ratio)” value was at most -4.2.

Take A47U U56A A122G U127C: the “polymerase ribozyme fitness (log ratio)” value is -2.55.

For the variant A17C C36U A52C G80U G84C A107U U144C, the “polymerase ribozyme fitness (log ratio)” value is at most -4.2.

Turning to A39G C87U, the “polymerase ribozyme fitness (log ratio)” value was -2.33.

For A39G U55C U56A C116U U139G U144G, the “polymerase ribozyme fitness (log ratio)” value was -2.27.

Take A16G A19U C93A: the “polymerase ribozyme fitness (log ratio)” value is -3.75.

Take A41C A47C A60U: the “polymerase ribozyme fitness (log ratio)” value is -2.01.

As for A49U C57U C93G C103G U144C, the “polymerase ribozyme fitness (log ratio)” value is at most -4.2.

Turning to G65A C114A, the “polymerase ribozyme fitness (log ratio)” value is -3.39.

Regarding A3C A17G C69G C116G A122G, the “polymerase ribozyme fitness (log ratio)” value is -1.99.

In the case of U13C U61C C85U A89C U144A, the “polymerase ribozyme fitness (log ratio)” value is at most -4.2.

As for C8G C43G A52G C93G C114G A121G, the “polymerase ribozyme fitness (log ratio)” value was at most -4.2.

In the case of C36U C51G A107U G128A U139G, the “polymerase ribozyme fitness (log ratio)” value is at most -4.2.

On to C38U A73G U101A, for which the “polymerase ribozyme fitness (log ratio)” value is -0.277.

For A28U C87A C131G, the “polymerase ribozyme fitness (log ratio)” value was at most -4.2.

Turning to C118U A119U, the “polymerase ribozyme fitness (log ratio)” value is -0.842.

Regarding C10G U56A A89U C99U G112C U145G, the “polymerase ribozyme fitness (log ratio)” value was at most -4.2.

For the variant C5U A23U A24C G46A C96U A137U, the “polymerase ribozyme fitness (log ratio)” value was at most -4.2.

Regarding G128A G133U, the “polymerase ribozyme fitness (log ratio)” value is -4.

On to A17G A52U A64U G65A G86C A107C G128A, for which the “polymerase ribozyme fitness (log ratio)” value is at most -4.2.

On to U53A G62C G84A G136A, for which the “polymerase ribozyme fitness (log ratio)” value was -3.58.

For the variant G11A A26U G48A U109C A147G, the “polymerase ribozyme fitness (log ratio)” value was at most -4.2.

Turning to U7A C36U C95G, the “polymerase ribozyme fitness (log ratio)” value is at most -4.2.

Turning to A3C G58A G94A, the “polymerase ribozyme fitness (log ratio)” value was -0.578.

For the variant C54G C95G, the “polymerase ribozyme fitness (log ratio)” value was -2.56.

Take U61G C85A G143C: the “polymerase ribozyme fitness (log ratio)” value was -3.43.

For the variant G11C C32U C69A A121G, the “polymerase ribozyme fitness (log ratio)” value is -4.12.

Consider G59A G94U C95A U104C, for which the “polymerase ribozyme fitness (log ratio)” value is -2.63.

As to C14G A24G U31A A49C A52C C54A U56A A73U A89G C99G A107C C149G, the “polymerase ribozyme fitness (log ratio)” value was at most -4.2.

A12G U15G C69A C75U A106G A120G: the “polymerase ribozyme fitness (log ratio)” value is -2.52.

With G80A A89U C95U A120G, the “polymerase ribozyme fitness (log ratio)” value is -1.11.

As to U4A C54U G92U C118U U134A, the “polymerase ribozyme fitness (log ratio)” value is -3.6.

On to G62U C95A, for which the “polymerase ribozyme fitness (log ratio)” value is -1.1.

In the case of G62A A64C C85U C95G C105G A121U U134G U139G U151C, the “polymerase ribozyme fitness (log ratio)” value is at most -4.2.

For the variant G46A G74C, the “polymerase ribozyme fitness (log ratio)” value was at most -4.2.

For the variant C14G G25A U55A U127C, the “polymerase ribozyme fitness (log ratio)” value is at most -4.2.

On to C10A, for which the “polymerase ribozyme fitness (log ratio)” value is -2.83.

As for U13G A21U C96U G133C A147C, the “polymerase ribozyme fitness (log ratio)” value was -4.05.

For U31A C43U U44G G62A G71A U90G A91C, the “polymerase ribozyme fitness (log ratio)” value was at most -4.2.

As for A40C U45A A66U G83A G88U A97C A122U A138U, the “polymerase ribozyme fitness (log ratio)” value is at most -4.2.

As to G58A C72U C76G C99G A110C, the “polymerase ribozyme fitness (log ratio)” value was at most -4.2.

Take C8A A17U A39U C85U U139A: the “polymerase ribozyme fitness (log ratio)” value was at most -4.2.

For G94A G136C, the “polymerase ribozyme fitness (log ratio)” value was -3.98.

With C54U C72U A91U C95G A98C C103A A119G A121G, the “polymerase ribozyme fitness (log ratio)” value is at most -4.2.

Take U9A C10G G48U C63G C85A A137G G141U: the “polymerase ribozyme fitness (log ratio)” value is at most -4.2.

As to A19C C36U G70A G80U C105U G152U, the “polymerase ribozyme fitness (log ratio)” value was -3.99.
